Data published in patent publication US6861257B1, “Methods for isolation of osteoclast precursor cells and inducing their differentiation into osteoclasts” (Shionogi & Co., Ltd., priority 1998, dated 2005).
Entries after “also recorded” stand apart in the source; their conditions may differ.

Key:
preosteoclasts [1] = assay: Induction of differentiation of preosteoclasts (from joint fluid of rheumatoid arthritis patients) into osteoclasts in the absence of accessory cells; format: cell-based; conditions: cytokine in place of human T-STIM in the medium, 37° C., 48-96 hours, no accessory cells
Procedure: The obtained cellular fraction was cultured in DMEM medium (Gibco BRL, #12430-21 or equivalent) supplemented with 10% (v/v) of fetal calf serum (FCS) in 5-7% CO2-containing air at 37° C. for several weeks. […]
Human T-STIM contains a variety of cytokines. In order to identify the cytokine which stimulates differentiation of preosteoclasts into osteoclasts, the differentiation was examined by modifycation the contents of Medium A described as previously in Example 1(3).
The following 16 kinds of medium (B-R) were prepared by using the cytokines shown below, alone or a mixture thereof, instead of human T-STIM contained in Medium A (Example 1(3)). […] Recombinant baculovirus containing the sequence was prepared to infect insect cells, then the recombinant eotaxin-3 protein was purified from the culture supernatant.)
The preosteoclasts obtained by Example 1(2) were cultured in the Medium […] described above at 37° C. for 48-96 hours.

preosteoclasts [2] = conditions: differentiation requiring the presence of accessory cells; cited from earlier work

Row | Molecule | ability for inducing the differentiation of preosteoclasts (preosteoclasts [1]) | induction of the differentiation of preosteoclasts into osteoclasts (preosteoclasts [2])
1 | GM-CSF: recombinant human GM-CSF (R & D Systems) | have an ability for inducing the differentiation of preosteoclasts | –
2 | IL-6: recombinant human IL-6 (R & D Systems) | do not have an ability for inducing the differentiation of preosteoclasts; also recorded: does not effect to the differentiation | induce the differentiation of preosteoclasts into osteoclasts
3 | eotaxin: recombinant human eotaxin (R & D Systems) | have an ability for inducing the differentiation of preosteoclasts | –
4 | IL-11: recombinant human IL-11 (R & D Systems) (protein, UniProt P20809 22-199, looked up) Interleukin-11: PGPPPGPPRVSPDPRAELDSTVLLTRSLLADTRQLAAQLRDKFPADGDHNLDSLPTLAMSAGALGALQLPGVLTRLRADLLSYLRHVQWLRRAGGSSLKTLEPELGTLQARLDRLLRRLQLLMSRLALPQPPPDPPAPPLAPPSSAWGGIRAAHAILGGLHLTLDWAVRGLLLLKTRL | do not have an ability for inducing the differentiation of preosteoclasts; also recorded: does not effect to the differentiation | induce the differentiation of preosteoclasts into osteoclasts
5 | IL-4: recombinant human IL-4 (Genzyme) (protein, UniProt P05112 25-153, looked up) Interleukin-4: HKCDITLQEIIKTLNSLTEQKTLCTELTVTDIFAASKNTTEKETFCRAATVLRQFYSHHEKDTRCLGATAQQFHRHKQLIRFLKRLDRNLWGLAGLNSCPVKEANQSTLENFLERLKTIMREKYSKCSS | do not have an ability for inducing the differentiation of preosteoclasts | –
6 | M-CSF: recombinant human M-CSF (R & D Systems) (protein, UniProt P09603 33-554, looked up) Macrophage colony-stimulating …: EEVSEYCSHMIGSGHLQSLQRLIDSQMETSCQITFEFVDQEQLKDPVCYLKKAFLLVQDIMEDTMRFRDNTPNAIAIVQLQELSLRLKSCFTKDYEEHDKACVRTFYETPLQLLEKVKNVFNETKNLLDKDWNIFSKNCNNSFAECSSQDVVTKPDCNCLYPKAIPSSDPASVSPHQPLAPSMAPVAGLTWEDSEGTEGSSLLPGEQPLHTVDPGSAKQRPPRSTCQSFEPPETPVVKDSTIGGSPQPRPSVGAFNPGMEDILDSAMGTNWVPEEASGEASEIPVPQGTELSPSRPGGGSMQTEPARPSNFLSASSPLPASAKGQQPADVTGTALPRVGPVRPTGQDWNHTPQKTDHPSALLRDPPEPGSPRISSLRPQGLSNPSTLSAQPQLSRSHSSGSVLPLGELEGRRSTRDRRSPAEPEGGPASEGAARPLPRFNSVPLTDTGHERQSEGSFSPQLQESVFHLLVPSVILVLLAVGGLLFYRWRRRSHQEPQRADSPLEQPEGSPLTQDDRQVELPV | do not have an ability for inducing the differentiation of preosteoclasts; also recorded: does not effect to the differentiation | induce the differentiation of preosteoclasts into osteoclasts
7 | IL-7: recombinant human IL-7 (Genzyme) (protein, UniProt P13232 26-177, looked up) Interleukin-7: DCDIEGKDGKQYESVLMVSIDQLLDSMKEIGSNCLNNEFNFFKRHICDANKEGMFLFRAARKLRQFLKMNSTGDFDLHLLKVSEGTTILLNCTGQVKGRKPAALGEAQPTKSLEENKSLKEQKKLNDLCFLKRLLQEIKTCWNKILMGTKEH | have an ability for inducing the differentiation of preosteoclasts | –
8 | eotaxin-3: human CC type chemokine, amino acid sequence SEQ ID No.:2; recombinant protein from baculovirus-infected insect cells (protein, listed as Homo sapiens) MMGLSLASAVLLASLLSLHLGTATRGSDISKTCCFQYSHKPLPWTWVRSYEFTSNSCSQRAVIFTTKRGKKVCTHPRKKWVQKYISLLKTPKQL | have an ability for inducing the differentiation of preosteoclasts | –
9 | eotaxin-2: recombinant human eotaxin-2 (R & D Systems) (protein, UniProt O00175 27-119, looked up) C-C motif chemokine 24: VVIPSPCCMFFVSKRIPENRVVSYQLSSRSTCLKAGVIFTTKKGQQFCGDPKQEWVQRYMKNLDAKQKKASPRARAVAVKGPVQRYPGNQTTC | have an ability for inducing the differentiation of preosteoclasts | –
